Columns and labels:
SARS-CoV-2 S protein = SARS-CoV-2 S protein (SARS-CoV-2, Wuhan-Hu-1 reference, UniProt P0DTC2); assay: SPR; conditions: both partners purified
SARS-CoV-1 S protein = SARS-CoV-1 S protein (SARS-CoV-1, strain not named (P59594 …, UniProt P59594)); assay: SPR; conditions: both partners purified

B1: P14-44 (antibody, V domains shown)
VH: QVQLVQSGAEVKKPGASVKVSCKASGYIFTSYSMHWVRQAPGQGLEWMGTIKPSDDSTNYAQKFQGRVSMTRDTSTSTVYMELSSLRYEDTAVYYCAREARGYYDRSGYYHPGYFDYWGQGTLVTVSS
VL: QSVLTQPASVSGSPGQSITISCTGTSSDVGGYNFVSWYQQHPGKAPKLMIYEVSDRPSGVSSRFSGSKSGNTASLTISGLQAEDEADYYCFSYTTSTTWVFGGGTKLTVL
notes: also called P14-44 IgG; source: HEK293F, transfected, purified (Protein A)
Kd (SARS-CoV-2 S protein): 0.55 nM
Kd (SARS-CoV-1 S protein): 4.3 nM

Reference: publication PMC8843702 (The Journal of Clinical Investigation, 2022)
